In assay [1] the target is T1, Biotinylated human TNFRI (human, UniProt P19438 30-211, limits assumed, biotinylated (approx 1 biotin per molecule)).
T1 sequence (looked up): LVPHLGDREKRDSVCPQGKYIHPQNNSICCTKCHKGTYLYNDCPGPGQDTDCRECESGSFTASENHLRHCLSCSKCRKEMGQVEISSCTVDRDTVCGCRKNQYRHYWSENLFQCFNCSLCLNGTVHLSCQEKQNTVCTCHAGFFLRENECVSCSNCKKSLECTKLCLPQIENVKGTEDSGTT
As to the kind of experiment: SPR (Biacore), biotinylated human TNFRI on streptavidin chip, dAb injected; KD from mean kd/ka. An excerpt:
(§1) The effect of PEGylation on the binding affinity of TAR2-10-27 for its antigen was investigated using Biacore. All the PEGylated formats were generated using TAR2-10-27cys (see Example 2). The following methodology was used to determine the on and off rates of each PEGylated dAb format for the antigen. Biotinylated human TNFRI (approx 1 biotin per molecule) was coated onto a single flow cell of a Biacore streptavidin sensor chip at a density of approximately 400 RU. A concentration series of each dAb or PEGylated dAb (2.6 μM, 770 nM, 260 nM, 77 nM and 2.6 nM) was sequentially injected (45 μl injection at a flow rate of 30 μl/min) over both the TNFRI coated flow cell and an uncoated flow cell (streptavidin), (a subtractive curve was generated by subtracting the uncoated flow cell curve from the TNFRI flow cell curve). The off-rate was analysed for five minutes after the injection of each sample after which the surface was regenerated by injection of 10 mM glycine pH 3.
(§2) Data generated from the Biacore was fitted using the curve fitting software (Biaevaluation 3.2) and the association constant (kₐ) and dissociation constant (kd) determined (Table 8).

Assay [2] has as its target T1, Biotinylated human TNFRI. As to the kind of experiment: SPR (Biacore), biotinylated human TNFRI on streptavidin chip, dAb injected.
Source text: as §1, §2
(In general: Surface plasmon resonance follows binding to a sensor surface in real time, without labels.)

Assay [3] deals with T2, TNF receptor 1 Fc fusion protein (R&D Systems) (human, UniProt P19438 30-211, limits assumed).
T2 construct: also called recombinant TNF receptor 1 (p55); not shown: Fc part of the bought fusion protein, captured by an anti-human Fc antibody
T2 sequence (looked up): T1 sequence (looked up)
Description: TNF receptor binding assay: dAb titrated against TNF binding to TNF receptor 1.

B1: TAR210-27 2 × 20K MAL PEG (other)
VH: ASTEVQLLESGGGLVQPGGSLRLSCAASGFTFEWYWMGWVRQAPGKGLEWVSAISGSGGSTYYADSVKGRFTISRDNSKNTLYLQMNSLRAEDAAVYYCAKVKLGGGPNFGYRGQGTLVTVSC
modifications: 2 × 20K (40K branched) MAL-PEG on the C-terminal Cys (Ser120cys)
notes: For the limits of the entry see m36; also called 40K PEGylated monomer (TAR2-10-27)
What is called Kd is the concentration at which binding is half-saturated. Read a low Kd as a tighter complex. A word on the koff: it is the first-order rate constant of dissociation. Higher therefore signals a short-lived complex. Broadly, the kon is the rate constant with which the complex forms. A high value points to faster complex formation. What is called IC50 is the concentration that inhibits the measured activity by half. A lower IC50 goes with higher potency. In turn, B1 returned an equilibrium dissociation constant (Kd) with Biotinylated human TNFRI [1] of 69.2 nM. Also, in the assay with Biotinylated human TNFRI [2], the koff came to 0.00517 s⁻¹ and the kon was determined as 74700 M⁻¹ s⁻¹. In addition, the IC50 in assay [3] was roughly 20 nM.

The values are drawn from patent US20060286066A1 (published 2006).
